The results in this text go back to patent US20190071490A1, “Preventing Post-Ictal Headaches” (Beth Israel Deaconess Medical Center, Inc., priority 2017, published 2019).

One experiment has as its target T1, human α-CGRP (Homo sapiens, UniProt P06881).
T1 construct: 1-37 (WT); purchased GenScript Corporation or Global Peptide Services
T1 sequence (P06881 83-119 limits assumed): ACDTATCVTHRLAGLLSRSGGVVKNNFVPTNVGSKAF
As to the kind of experiment: Biacore SPR affinity of Fab fragments to N-biotinylated human α-CGRP on SA chip. It is filed as binding. The settings on record: 37° C., screening mode except underlined values. As for the experimental part:
(§1) Affinity determination of the Fabs. Affinities of the anti-CGRP monoclonal antibodies were determined at either 25° C. or 37° C. using the BIACORE3000™ surface plasmon resonance (SPR) system (Biacore, INC, Piscataway N.J.) with the manufacture's own running buffer, HBS-EP (10 mM HEPES pH 7.4, 150 mM NaCl, 3 mM EDTA, 0.005% v/v polysorbate P20). Affinity was determined by capturing N-terminally biotinylated CGRP peptides (custom ordered from GenScript Corporation, New Jersey or Global Peptide Services, Colorado) via pre-immobilized streptavidin on SA chip and measuring binding kinetics of antibody Fab titrated across the CGRP surface. Biotinylated CGRP was diluted into HBS-EP and injected over the chip at a concentration of less than 0.001 mg/ml. Using variable flow time across the individual chip channels, two ranges of antigen density were achieved: <50 response units (RU) for detailed kinetic studies and about 800 RU for concentration studies and screening. […] After each binding cycle, surfaces were regenerated with 25 mM NaOH in 25% v/v ethanol, which was tolerated over hundreds of cycles. Kinetic association rate (kon) and dissociation rate (koff) were obtained simultaneously by fitting the data to a 1:1 Langmuir binding model (Karlsson et al. (1994). Methods Enzymology 6. 99-110) using the BIAevaluation program. Global equilibrium dissociation constants (KD) or “affinities” were calculated from the ratio KD=koff/kon.
(§2) Biacore assay for affinity determination. […] All Biacore assays were conducted in HBS-EP running buffer (10 mM HEPES pH 7.4, 150 mM NaCl, 3 mM EDTA, 0.005% v/v polysorbate P20). CGRP surfaces were prepared by diluting the N-biotinylated CGRP to a concentration of less than 0.001 mg/mL into HBS-EP buffer and injecting it across the SA sensor chip using variable contact times. Low capacity surfaces, corresponding to capture levels <50 response units (RU) were used for high-resolution kinetic studies, whereas high capacity surfaces (about 800 RU of captured CGRP) were used for concentration studies, screening, and solution affinity determinations. […] Samples were typically injected for 1 minute at 100 μL/min and dissociation times of at least 10 minutes were allowed. After each binding cycle, surfaces were regenerated with 25 mM NaOH in 25% v/v ethanol, which was tolerated over hundreds of cycles. An entire titration series (typically generated in duplicate) was fit globally to a 1:1 Langmuir binding model using the BIAevaluation program. This returned a unique pair of association and dissociation kinetic rate constants (respectively, kon and koff) for each binding interaction, whose ratio gave the equilibrium dissociation constant (KD=koff/kon).
(§3) High-resolution analysis of binding interactions with extremely slow off rates. […] The protocol described above was used with the following modifications. The association rate constant (kon) was determined by injecting a 2-fold titration series (in duplicate) spanning 550 nM-1 nM for 30 seconds at 100 μL/min and allowing only a 30 second dissociation phase. The dissociation rate constant (koff) was determined by injecting three concentrations (high, medium, and low) of the same titration series in duplicate for 30 seconds and allowing a 2-hour dissociation phase. The affinity (KD) of each interaction was obtained by combining the kon and koff values obtained in both types of experiments, as shown in Table 4.

Another experiment concerns the target T2, rat α-CGRP (Rattus norvegicus, UniProt P01256).
T2 construct: rat α (1-37); purchased GenScript Corporation or Global Peptide Services
T2 sequence (P01256 83-119 limits assumed): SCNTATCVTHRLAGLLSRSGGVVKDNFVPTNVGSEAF
Kind of experiment: Biacore SPR affinity of Fab fragments to N-biotinylated rat α-CGRP on SA chip. It is filed as binding. The settings on record: 37° C., screening mode except underlined values. As for the experimental part:
as §1, §2, §3
In general terms: SPR reads the build-up and loss of mass on a sensor chip optically.

B1: M68: G1 variant; L1 R28N T30G; L2 L561; H2 E54K A57N S58D E64D; HC-FW3 L99T A100V (antibody, V domains shown)
VH: EVQLVESGGGLVQPGGSLRLSCAASGFTFSNYWISWVRQAPGKGLEWVAEIRSKSDNDATHYADAVKGRFTISRDNAKNSLYLQMNSLRAEDTAVYYCTVYFDYGLAIQNYWGQGTLVTVSS
VL: EIVLTQSPATLSLSPGERATLSCKASKNVGTYVSWYQQKPGQAPRLLIYGASNRYIGIPARFSGSGSGTDFTLTISSLEPEDFAVYYCSQSYNYPYTFGQGTKLEIK
On to B1, for which, in the experiment with human α-CGRP, the “α-human koff” value was found to be 0.000428 s⁻¹. The “α-rat koff” value in the experiment with rat α-CGRP was 0.00676 s⁻¹.

B2: M76: G1 variant; L1 R28N T30S; L2 G50A L56T; H2 A57G; HC-FW3 L99T A100V (antibody, V domains shown)
VH: EVQLVESGGGLVQPGGSLRLSCAASGFTFSNYWISWVRQAPGKGLEWVAEIRSESDGSATHYAEAVKGRFTISRDNAKNSLYLQMNSLRAEDTAVYYCTVYFDYGLAIQNYWGQGTLVTVSS
VL: EIVLTQSPATLSLSPGERATLSCKASKNVSTYVSWYQQKPGQAPRLLIYAASNRYTGIPARFSGSGSGTDFTLTISSLEPEDFAVYYCSQSYNYPYTFGQGTKLEIK
B2: the “α-human koff” value with human α-CGRP turned out to be 0.000364 s⁻¹. For the same molecule, in the experiment with rat α-CGRP, the “α-rat koff” value came out at 0.00116 s⁻¹.

B3: M73: G1 variant; L1 R28N T30G; L2 L56S; H2 E54K A57N S58Y E64D; HC-FW3 L99T A100V (antibody, V domains shown)
VH: EVQLVESGGGLVQPGGSLRLSCAASGFTFSNYWISWVRQAPGKGLEWVAEIRSKSDNYATHYADAVKGRFTISRDNAKNSLYLQMNSLRAEDTAVYYCTVYFDYGLAIQNYWGQGTLVTVSS
VL: EIVLTQSPATLSLSPGERATLSCKASKNVGTYVSWYQQKPGQAPRLLIYGASNRYSGIPARFSGSGSGTDFTLTISSLEPEDFAVYYCSQSYNYPYTFGQGTKLEIK
On to B3, for which, in the experiment with human α-CGRP, the “α-human koff” value is 0.000255 s⁻¹. The “α-rat koff” value in the experiment with rat α-CGRP was 0.003 s⁻¹.

B4: M79: G1 variant; L1 R28N T30S; L2 G50A L56T; H2 E54K A57P; HC-FW3 L99T A100V (antibody, V domains shown)
VH: EVQLVESGGGLVQPGGSLRLSCAASGFTFSNYWISWVRQAPGKGLEWVAEIRSKSDPSATHYAEAVKGRFTISRDNAKNSLYLQMNSLRAEDTAVYYCTVYFDYGLAIQNYWGQGTLVTVSS
VL: EIVLTQSPATLSLSPGERATLSCKASKNVSTYVSWYQQKPGQAPRLLIYAASNRYTGIPARFSGSGSGTDFTLTISSLEPEDFAVYYCSQSYNYPYTFGQGTKLEIK
In the case of B4, the “α-human koff” value with human α-CGRP stood at 0.00129 s⁻¹. Besides, in the experiment with rat α-CGRP, the “α-rat koff” value came to 0.19 s⁻¹.

B5: M72: G1 variant; L1 R28N T30G; L2 L56S; H2 E54K; HC-FW3 L99T A100V (antibody, V domains shown)
VH: EVQLVESGGGLVQPGGSLRLSCAASGFTFSNYWISWVRQAPGKGLEWVAEIRSKSDASATHYAEAVKGRFTISRDNAKNSLYLQMNSLRAEDTAVYYCTVYFDYGLAIQNYWGQGTLVTVSS
VL: EIVLTQSPATLSLSPGERATLSCKASKNVGTYVSWYQQKPGQAPRLLIYGASNRYSGIPARFSGSGSGTDFTLTISSLEPEDFAVYYCSQSYNYPYTFGQGTKLEIK
In the case of B5, the “α-human koff” value in the experiment with human α-CGRP was determined as 0.0004 s⁻¹. Also, the “α-rat koff” value with rat α-CGRP stood at 0.00395 s⁻¹.

B6: M70: G1 variant; L1 R28N T30G; L2 L561; H2 E54K A57S; HC-FW3 L99T A100V (antibody, V domains shown)
VH: EVQLVESGGGLVQPGGSLRLSCAASGFTFSNYWISWVRQAPGKGLEWVAEIRSKSDSSATHYAEAVKGRFTISRDNAKNSLYLQMNSLRAEDTAVYYCTVYFDYGLAIQNYWGQGTLVTVSS
VL: EIVLTQSPATLSLSPGERATLSCKASKNVGTYVSWYQQKPGQAPRLLIYGASNRYIGIPARFSGSGSGTDFTLTISSLEPEDFAVYYCSQSYNYPYTFGQGTKLEIK
As to B6, the “α-human koff” value with human α-CGRP was 0.000559 s⁻¹. Further, the “α-rat koff” value with rat α-CGRP was found to be 0.00607 s⁻¹.

B7: M69: G1 variant; L1 R28N T30G; L2 L561; H2 E54K A57N S58E; HC-FW3 L99T A100V (antibody, V domains shown)
VH: EVQLVESGGGLVQPGGSLRLSCAASGFTFSNYWISWVRQAPGKGLEWVAEIRSKSDNEATHYAEAVKGRFTISRDNAKNSLYLQMNSLRAEDTAVYYCTVYFDYGLAIQNYWGQGTLVTVSS
VL: EIVLTQSPATLSLSPGERATLSCKASKNVGTYVSWYQQKPGQAPRLLIYGASNRYIGIPARFSGSGSGTDFTLTISSLEPEDFAVYYCSQSYNYPYTFGQGTKLEIK
Consider B7, for which, in the experiment with human α-CGRP, the “α-human koff” value worked out at 0.000733 s⁻¹. For the same molecule, the “α-rat koff” value in the experiment with rat α-CGRP worked out at 0.00181 s⁻¹.

B8: M78: G1 variant; L1 R28N T30S; L2 G50A L56T; H2 E54K A57N S58T; HC-FW3 L99T A100V (antibody, V domains shown)
VH: EVQLVESGGGLVQPGGSLRLSCAASGFTFSNYWISWVRQAPGKGLEWVAEIRSKSDNTATHYAEAVKGRFTISRDNAKNSLYLQMNSLRAEDTAVYYCTVYFDYGLAIQNYWGQGTLVTVSS
VL: EIVLTQSPATLSLSPGERATLSCKASKNVSTYVSWYQQKPGQAPRLLIYAASNRYTGIPARFSGSGSGTDFTLTISSLEPEDFAVYYCSQSYNYPYTFGQGTKLEIK
As to B8, in the experiment with human α-CGRP, the “α-human koff” value was 0.00131 s⁻¹. Besides, the “α-rat koff” value in the experiment with rat α-CGRP amounted to 0.167 s⁻¹.

B9: M75: G1 variant; L1 R28N T30G; L2 L56S; H2 E54K A57V; HC-FW3 L99T A100V (antibody, V domains shown)
VH: EVQLVESGGGLVQPGGSLRLSCAASGFTFSNYWISWVRQAPGKGLEWVAEIRSKSDVSATHYAEAVKGRFTISRDNAKNSLYLQMNSLRAEDTAVYYCTVYFDYGLAIQNYWGQGTLVTVSS
VL: EIVLTQSPATLSLSPGERATLSCKASKNVGTYVSWYQQKPGQAPRLLIYGASNRYSGIPARFSGSGSGTDFTLTISSLEPEDFAVYYCSQSYNYPYTFGQGTKLEIK
In the case of B9, the “α-human koff” value in the experiment with human α-CGRP came out at 0.00116 s⁻¹. The “α-rat koff” value with rat α-CGRP came to 0.0187 s⁻¹.

B10: M71: G1 variant; L1 R28N T30G; L2 L561; H2 E54K A57Y; HC-FW3 L99T A100V (antibody, V domains shown)
VH: EVQLVESGGGLVQPGGSLRLSCAASGFTFSNYWISWVRQAPGKGLEWVAEIRSKSDYSATHYAEAVKGRFTISRDNAKNSLYLQMNSLRAEDTAVYYCTVYFDYGLAIQNYWGQGTLVTVSS
VL: EIVLTQSPATLSLSPGERATLSCKASKNVGTYVSWYQQKPGQAPRLLIYGASNRYIGIPARFSGSGSGTDFTLTISSLEPEDFAVYYCSQSYNYPYTFGQGTKLEIK
With B10, the “α-human koff” value with human α-CGRP is 0.00128 s⁻¹. Further, the “α-rat koff” value with rat α-CGRP is 0.00212 s⁻¹.

B11: M77: G1 variant; L1 R28N T30S; L2 G50A L56T; H2 E54K A57D; HC-FW3 L99T A100V (antibody, V domains shown)
VH: EVQLVESGGGLVQPGGSLRLSCAASGFTFSNYWISWVRQAPGKGLEWVAEIRSKSDDSATHYAEAVKGRFTISRDNAKNSLYLQMNSLRAEDTAVYYCTVYFDYGLAIQNYWGQGTLVTVSS
VL: EIVLTQSPATLSLSPGERATLSCKASKNVSTYVSWYQQKPGQAPRLLIYAASNRYTGIPARFSGSGSGTDFTLTISSLEPEDFAVYYCSQSYNYPYTFGQGTKLEIK
B11: the “α-human koff” value with human α-CGRP came to 0.000477 s⁻¹. Also, the “α-rat koff” value in the experiment with rat α-CGRP amounted to 0.0143 s⁻¹.

B12: M74: G1 variant; L1 R28N T30G; L2 L56S; H2 E54K A57S; HC-FW3 L99T A100V (antibody, V domains shown)
VH: EVQLVESGGGLVQPGGSLRLSCAASGFTFSNYWISWVRQAPGKGLEWVAEIRSKSDSSATHYAEAVKGRFTISRDNAKNSLYLQMNSLRAEDTAVYYCTVYFDYGLAIQNYWGQGTLVTVSS
VL: EIVLTQSPATLSLSPGERATLSCKASKNVGTYVSWYQQKPGQAPRLLIYGASNRYSGIPARFSGSGSGTDFTLTISSLEPEDFAVYYCSQSYNYPYTFGQGTKLEIK
As to B12, in the experiment with human α-CGRP, the “α-human koff” value is 0.000597 s⁻¹. Besides, the “α-rat koff” value with rat α-CGRP was 0.00603 s⁻¹.
